B1: HIPM (HrpN-interacting protein from Malus), original yeast two-hybrid clone with the 53 C-terminal amino acids (other)
chain: GDRWSMRILWACAIGSAVSLYMVAVDRQLKNRERALAEELKAMEAESGSGEIV
notes: Residues 8-60 are worked out from that; also called pB42AD-HIPM; pAD-HIPM
B2: AtHIPM, 52 amino acid fragment orthologous to the original HIPM prey clone (other)
chain: NDKWSMRILWGCAIGSAIGLYMVAVERQTQNRARAMAESLRAAESQGDGDNV
B3: HrpN (harpin) of Erwinia amylovora, full-length, yeast two-hybrid construct (other)
chain: MSLNTSGLGASTMQISIGGAGGNNGLLGTSRQNAGLGGNSALGLGGGNQNDTVNQLAGLLTGMMMMMSMMGGGGLMGGGLGGGLGNGLGGSGGLGEGLSNALNDMLGGSLNTLGSKGGNNTTSTTNSPLDQALGINSTSQNDDSTSGTDSTSDSSDPMQQLLKMFSEIMQSLFGDGQDGTQGSSSGGKQPTEGEQNAYKKGVTDALSGLMGNGLSQLLGNGGLGGGQGGNAGTGLDGSSLGGKGLQNLSGPVDYQQLGNAVGTGIGMKAGIQALNDIGTHSDSSTRSFVNKGDRAMAKEIGQFMDQYPEVFGKPQYQKGPGQEVKTDDKSWAKALSKPDDDGMTPASMEQFNKAKGMIKSAMAGDTGNGNLQARGAGGSSLGIDAMMAGDAINNMALGKLGAA
notes: also called pGilda-hrpN; full-length HrpN protein

Legend:
[1] = molecular target: AtHIPM, endogenous protein in Arabidopsis thaliana ecotype Columbia plants (Arabidopsis thaliana); assay: cell-based or functional assay
[2] = molecular target: the molecule itself; assay: yeast two-hybrid (LexA system), self-interaction
[3] = molecular target: B3; assay: yeast two-hybrid (LexA system), HrpN bait, apple cDNA prey clone
[4] = molecular target: T1, LexA-lamin (UniProt P02545 66-230); assay: yeast two-hybrid (LexA system), growth without leucine
T1 construct: not shown: LexA part of the fusion
T1 sequence: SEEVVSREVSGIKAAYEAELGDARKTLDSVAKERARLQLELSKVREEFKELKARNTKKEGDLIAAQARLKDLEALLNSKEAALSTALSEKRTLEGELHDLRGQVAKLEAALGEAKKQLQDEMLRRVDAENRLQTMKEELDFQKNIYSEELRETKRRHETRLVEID

[5] = molecular target: T2, HrpN-4, truncated derivative of HrpN spanning residues 1-198 (Erwinia amylovora, UniProt Q01099 1-198); assay: yeast two-hybrid, HrpN deletions in pGilda against pB42AD-HIPM
T2 construct: Cloned in pGilda (LexA fusion, bait)
T2 sequence (looked up): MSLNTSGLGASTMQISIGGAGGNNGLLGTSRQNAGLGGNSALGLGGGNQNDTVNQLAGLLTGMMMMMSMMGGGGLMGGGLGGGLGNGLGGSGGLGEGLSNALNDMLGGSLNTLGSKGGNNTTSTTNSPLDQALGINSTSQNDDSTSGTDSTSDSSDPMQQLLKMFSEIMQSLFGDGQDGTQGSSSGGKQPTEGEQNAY

[6] = molecular target: B3; assay: yeast two-hybrid (LexA system), growth with or without leucine

Question: Which results are given for “HrpN as applied to plants (Messenger, Eden Bioscience; 15 ug/ml of HrpN) (from UniProt Q01099 1-403)”?
Answer: decrease in root growth of the AtHIPM T-DNA mutant line (few AtHIPM transcripts) after treatment with 15 ug/ml of HrpN [1]: 6%; root growth of the wild-type 10 days after treatment with 15 ug/ml of HrpN [1]: 9%; top growth of the wild-type plants one week after spraying with 15 ug/ml of HrpN [1]: 10%

Question: Does B1 bind [2]?
Answer: no binding

Question: Does B1 bind [3]?
Answer: binds

Question: Does B1 bind [4]?
Answer: no binding

Question: Does B1 bind [5]?
Answer: binds

Question: Which results are given for B2?
Answer: binding result [2]: no binding; binding result [6]: binds

Question: Does B3 bind [2]?
Answer: binds
